Where no end group is shown, it is not given here.
Key:
[1] = molecular target: T1, 6His-S-Importin β(1-876), full-length WT human importin β (human, UniProt Q14974 1-876); assay: FRET or BRET; Rango FRET sensor in solution: 20 nM Rango-2/α1 (pK188) and 50 nM importin β (pKW485) in TBS pH 7.4, 0.01% Tween-20, with increasing concentrations of DPR 10-mers or ZZ-RanQ69L-GTP; ratio of acceptor (535 nm) to donor (480 nm) emission; non-linear fit with one binding site; settings: both partners purified
T1 construct: human importin β (KPNB1), full length, residues 1-876, expressed from pET30a; Construct from Chi et al., 1997; also called KPNB1; WT importin β (pKW485)
T1 sequence (Q14974 whole entry, the tested form may be a part): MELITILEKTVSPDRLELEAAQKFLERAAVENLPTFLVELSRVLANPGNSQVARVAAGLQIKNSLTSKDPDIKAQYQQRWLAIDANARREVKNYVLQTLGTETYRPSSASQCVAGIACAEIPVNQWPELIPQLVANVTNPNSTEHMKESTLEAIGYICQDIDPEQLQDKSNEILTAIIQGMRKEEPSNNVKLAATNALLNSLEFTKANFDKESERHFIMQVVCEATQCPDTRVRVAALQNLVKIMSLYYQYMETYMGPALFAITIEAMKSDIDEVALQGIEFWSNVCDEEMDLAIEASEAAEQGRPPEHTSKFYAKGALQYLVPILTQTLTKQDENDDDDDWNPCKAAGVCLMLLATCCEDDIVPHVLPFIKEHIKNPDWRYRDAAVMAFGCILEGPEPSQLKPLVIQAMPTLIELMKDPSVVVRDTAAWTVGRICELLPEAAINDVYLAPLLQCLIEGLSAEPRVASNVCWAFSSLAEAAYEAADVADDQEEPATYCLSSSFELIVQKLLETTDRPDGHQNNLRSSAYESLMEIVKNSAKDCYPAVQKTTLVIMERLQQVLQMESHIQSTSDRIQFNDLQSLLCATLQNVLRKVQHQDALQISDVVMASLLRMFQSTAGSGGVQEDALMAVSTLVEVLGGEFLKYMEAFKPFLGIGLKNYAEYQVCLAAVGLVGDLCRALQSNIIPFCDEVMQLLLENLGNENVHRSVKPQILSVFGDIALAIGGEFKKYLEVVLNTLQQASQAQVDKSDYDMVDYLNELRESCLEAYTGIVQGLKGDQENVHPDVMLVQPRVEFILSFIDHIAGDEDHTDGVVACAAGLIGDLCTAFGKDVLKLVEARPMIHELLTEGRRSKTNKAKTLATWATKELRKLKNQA

[2] = molecular target: T2, biotinylated WT importin β-Avitag (human, UniProt Q14974 1-876, biotin on the Avitag); assay: bead halo assay; biotinylated importin β or biotinylated BSA on neutravidin polystyrene beads; fluorescent prey (200 nM AF488-DPR, Rango) in binding buffer with assay buffer (EDTA, BSA, NaCl, Tween); room temperature, at least 30 min; confocal rim vs. background ratio; settings: both partners purified
T2 construct: WT human importin β (KPNB1) in pRSET A with C-terminal Avitag; Called WT; Held on neutravidin beads by the biotin; also called biotinylated importin β; importin β-coated beads; source: E. coli BL21DE3, co-expressed with BirA biotin ligase, purified (Ni-NTA)
T2 sequence (Q14974 whole entry): as the sequence (Q14974 whole entry, the tested form may be a part) above

| Binder | binding result [1] | halo intensity (rim vs. background) relative to control beads [2] [fold] |
| --- | --- | --- |
| GRGRGRGRGRGRGRGRGRGRKC (C9orf72 repeat-associated non-AUG translation product poly-GR, 10 repeats, plus C-terminal K (solubility) and C (labelling); unlabelled form, used in the FRET, GFP-Trap, sedimentation and import assays; also called poly-GR; R-DPR; source: synthetic peptide (Genscript; 21st Century Biochemicals)) | binds | – |
| PRPRPRPRPRPRPRPRPRPRKC(Alexa Fluor 488 C5‑maleimide) (poly-PR, 10 repeats, plus C-terminal K and C; also called AF488-PR10; DPR-AF488; source: synthetic peptide (Genscript)) [AF488-labeled PR10] | – | ~2 |
| GRGRGRGRGRGRGRGRGRGRKC(Alexa Fluor 488 C5‑maleimide) (poly-GR, 10 repeats, plus C-terminal K and C; also called AF488-GR10; DPR-AF488; source: synthetic peptide (Genscript)) [AF488-labeled GR10] | – | ~2 |
| PRPRPRPRPRPRPRPRPRPRKC (C9orf72 repeat-associated non-AUG translation product poly-PR, 10 repeats, plus C-terminal K and C; unlabelled form; also called R-DPR; source: synthetic peptide (Genscript; 21st Century Biochemicals)) | binds | – |
